First the molecules themselves.
T1: mouse CD47 (mouse) (UniProt Q61735)
T1 sequence (looked up): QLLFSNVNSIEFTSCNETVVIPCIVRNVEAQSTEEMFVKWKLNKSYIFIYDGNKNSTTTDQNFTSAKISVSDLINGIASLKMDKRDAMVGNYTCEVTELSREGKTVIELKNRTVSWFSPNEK

B1: 4RP13-4-5C (designed binder)
hSIRPα IgV domain mutant: EEELQVIQPDKSVSVAAGESAILNCTVTSLIPVGPIQWFRGAGPARELIYNQKHQTFPRVTTVSEQTKRENRDFSISISNITPADAGTYYCVKFRKGSPDTEFKSGAGTELSVRAKPS
B2: 4RP13-3-10B (designed binder)
hSIRPα IgV domain mutant: B1 hSIRPα IgV domain mutant with N24H, I31Y, H54G, Q55R, T56R, Q66S, E70A, R72M
B3: 2R-1-10B (designed binder)
hSIRPα IgV domain mutant: B1 hSIRPα IgV domain mutant with N24H, H54N, Q55L, T56I, Q66S, T67G, R72M
B4: 2R-1-4B (designed binder)
hSIRPα IgV domain mutant: B1 hSIRPα IgV domain mutant with N24H, I31A, H54L, Q55D, T56S, Q66S, N71S, R72M
B5: 4RP13-5-6G (designed binder)
hSIRPα IgV domain mutant: B1 hSIRPα IgV domain mutant with N24R, I31T, H54A, Q55K, T56Q, Q66S, R72M, D73I
B6: 2RP-1-3E (designed binder)
hSIRPα IgV domain mutant: B1 hSIRPα IgV domain mutant with N24T, I31W, H54G, T56N, Q66S, E70F, R72M
B7: 4RP13-3-4D (designed binder)
hSIRPα IgV domain mutant: B1 hSIRPα IgV domain mutant with N24H, I31L, H54S, Q55K, T56V, Q66S, E70R, R72M
B8: 2R-1-7B (designed binder)
hSIRPα IgV domain mutant: B1 hSIRPα IgV domain mutant with N24H, T26I, H54I, Q55L, Q66S, R72Y
B9: 4RP13-3-7B (designed binder)
hSIRPα IgV domain mutant: B1 hSIRPα IgV domain mutant with N24T, I31Y, H54R, Q66S, E70F, R72M

Residue numbers refer to the chain shown, from its start.

The target of the test is T1, mouse CD47 (mouse). Description: ELISA, coated mouse CD47 ECD Fc, supernatant, anti-c-Myc HRP. Background: An ELISA detects its analyte on a solid surface through an enzyme-linked reagent.
Turning to B1, the mCD47 binding (OD) worked out at 0.116 OD.
To B2 belongs 0.17 OD; to B3, 0.086 OD; to B4, 0.082 OD.
To B5 belongs 0.149 OD; to B6, 0.113 OD; to B7, 0.173 OD.
To B8 belongs 0.087 OD; to B9, 0.152 OD.
